Data reported in US20260008815A1, “CYCLIC PEPTIDE OR SALT THEREOF, AND USES THEREOF” (FUJIFILM Corporation, priority 2023, published 2026).
Numbered stars: 1 amine (or outer) side, 2 acyl side, 3 side chain; on linkers, the order of the positions; unused ones are H or OH. Bridge positions count the residues as written; N and C are the ends. Ends that are not written are not given here. acetyl = acetyl (haloacetyl before ring closure) on the side-chain amine, O=C(C[*:1])[*:2]; COCH2 = acetyl group that carries the bridge

Molecular target: T1, Recombinant Human FGFR2 alpha (IIIc) Fc Chimera Protein (Homo sapiens, UniProt P21802)
T1 construct: Fc (chimera); purchased R&D systems 712-FR-050
Experiment: ELISA binding affinity of enzymatically synthesized peptide to FGFR
Conditions: ELISA luminescence signal at 10 nmol/L peptide, SEQ ID NO: 47 at 10 nmol/L standardized to 1; enzyme synthesis product
How it was run: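 FGFR2 alpha (IIIc) Fc chimera (5 ng/well) was immobilized, and Myc-tagged peptide was bound 3 h at room temperature, then detected with anti-Myc antibody (2 h) and chemiluminescent substrate. Signal was corrected against FGFR-free wells. Score A–D was the luminescence at 10 nmol/L peptide, normalized to cyclic peptide SEQ ID NO: 47.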

T1 sequence (P21802 with tags, fused parts or gaps limits assumed): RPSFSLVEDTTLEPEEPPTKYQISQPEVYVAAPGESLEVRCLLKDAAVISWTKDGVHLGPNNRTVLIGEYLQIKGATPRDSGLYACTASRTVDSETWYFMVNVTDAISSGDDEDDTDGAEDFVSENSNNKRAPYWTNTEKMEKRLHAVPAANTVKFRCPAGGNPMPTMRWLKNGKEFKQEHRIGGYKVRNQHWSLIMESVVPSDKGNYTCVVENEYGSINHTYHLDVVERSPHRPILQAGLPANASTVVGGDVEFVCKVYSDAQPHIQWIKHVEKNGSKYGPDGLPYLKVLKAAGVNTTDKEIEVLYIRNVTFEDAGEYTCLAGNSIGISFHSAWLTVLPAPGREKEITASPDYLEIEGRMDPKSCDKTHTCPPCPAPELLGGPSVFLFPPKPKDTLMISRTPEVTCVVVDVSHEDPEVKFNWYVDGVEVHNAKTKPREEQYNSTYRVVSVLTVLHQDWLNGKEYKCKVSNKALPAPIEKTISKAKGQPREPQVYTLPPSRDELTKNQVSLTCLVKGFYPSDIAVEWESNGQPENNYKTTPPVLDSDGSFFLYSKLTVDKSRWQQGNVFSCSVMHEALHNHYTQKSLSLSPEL

Substance | Evaluation result of binding affinity to FGFR
363 (LCYLYQYIYTAK(COCH2)F; thioether 2-12) [compound 363] | C (0.1 or more and less than 0.5)
364 (QCLQYLYQYLFK(COCH2)I; thioether 2-12) [compound 364] | C (0.1 or more and less than 0.5)
365 (LCYLYQYLYQAK(COCH2)F; thioether 2-12) [compound 365] | C (0.1 or more and less than 0.5)
366 (DCQQYYLYLYLWK(COCH2)I; thioether 2-13) [compound 366] | C (0.1 or more and less than 0.5)
367 (HCQLEYLYTYVLK(COCH2)I; thioether 2-13) [compound 367] | C (0.1 or more and less than 0.5)
368 (QCLIQDLYAYIFK(COCH2)L; thioether 2-13) [compound 368] | C (0.1 or more and less than 0.5)
370 (DCQLYYLYQYVLTK(COCH2)V; thioether 2-14) [compound 370] | C (0.1 or more and less than 0.5)
373 (QCYNYQYIYQYIYK(COCH2)I; thioether 2-14) [compound 373] | C (0.1 or more and less than 0.5)
378 (QCPRQLYYLYLYLSK(COCH2)I; thioether 2-15 (inferred)) [compound 378] | C (0.1 or more and less than 0.5)
379 (NCQLYYTYLYLHTLK(COCH2)F; thioether 2-15 (inferred)) [compound 379] | C (0.1 or more and less than 0.5)
381 (VCQEYYLYQYVYELK(COCH2)Y; thioether 2-15 (inferred)) [compound 381] | C (0.1 or more and less than 0.5)
382 (PCDRQLYYLYQYIHK(COCH2)T; thioether 2-15 (inferred)) [compound 382] | C (0.1 or more and less than 0.5)
384 (QCQLYYLYQYTIAIK(COCH2)T; thioether 2-15 (inferred)) [compound 384] | C (0.1 or more and less than 0.5)
385 (QCAYYHLYQYLHQLK(COCH2)V; thioether 2-15 (inferred)) [compound 385] | B (0.5 or more and less than 0.7)
386 (RCHHNFHHARQWGFFHHYK(COCH2)R; thioether 2-19 (inferred)) [compound 386] | B (0.5 or more and less than 0.7)
387 (RCHHNFHHARQHRFFHHYK(COCH2)R; thioether 2-19 (inferred)) [compound 387] | C (0.1 or more and less than 0.5)
388 (RCHHNFHHARQHGFFYHYK(COCH2)R; thioether 2-19 (inferred)) [compound 388] | C (0.1 or more and less than 0.5)
390 (YCEENYLDPEQYQYFHYFK(COCH2)R; thioether 2-19 (inferred)) [compound 390] | C (0.1 or more and less than 0.5)
391 (YCEENYLDPEQYQYFHYFK(COCH2)H; thioether 2-19 (inferred)) [compound 391] | A (0.7 or more)
392 (YCHENYLDPEQYQYFHYFK(COCH2)Y; thioether 2-19 (inferred)) [compound 392] | A (0.7 or more)

Substance | Evaluation result of binding affinity to FGFR
393 (YCHENYLDPEQHQYFHYFK(COCH2)Y; thioether 2-19 (inferred)) [compound 393] | C (0.1 or more and less than 0.5)
394 (YCHENYLDPEQYQYFHYFK(COCH2)R; thioether 2-19 (inferred)) [compound 394] | B (0.5 or more and less than 0.7)
396 (YCEENYLDPEQHQYFIYFK(COCH2)R; thioether 2-19 (inferred)) [compound 396] | B (0.5 or more and less than 0.7)
397 (YCEENYLDPEQHQYFIYFK(COCH2)H; thioether 2-19 (inferred)) [compound 397] | A (0.7 or more)
398 (YCHENYLDPEQHQYFIYFK(COCH2)R; thioether 2-19 (inferred)) [compound 398] | B (0.5 or more and less than 0.7)
399 (QK(COCH2)PQNFINPVQWRYFQHYCN; thioether 2-19 (inferred)) [compound 399] | C (0.1 or more and less than 0.5)
402 (PCEVYNYWYPTQWFFFTQFK(COCH2)K; thioether 2-20 (inferred)) [compound 402] | A (0.7 or more)
403 (ACRRANWIHPIQWFFFHVYK(COCH2)H; thioether 2-20 (inferred)) [compound 403] | B (0.5 or more and less than 0.7)
404 (DCIRPYDQLQLIYQYLYQLK(COCH2)K; thioether 2-20 (inferred)) [compound 404] | C (0.1 or more and less than 0.5)
405 (QCLTQRVYLRQLAYYRLYRK(COCH2)I; thioether 2-20 (inferred)) [compound 405] | C (0.1 or more and less than 0.5)
406 (PCEQQNFHSVIQWHFFAQYK(COCH2)N; thioether 2-20 (inferred)) [compound 406] | A (0.7 or more)
408 (HCSQHQTTYYQIYAYLHAIK(COCH2)I; thioether 2-20 (inferred)) [compound 408] | C (0.1 or more and less than 0.5)
410 (WCQESSNYLAPLQWYFFNWYK(COCH2)T; thioether 2-21 (inferred)) [compound 410] | A (0.7 or more)
411 (TCVDKDNWYNHVQWQYFFLYK(COCH2)Q; thioether 2-21 (inferred)) [compound 411] | A (0.7 or more)
413 (QCDQDAIQWVYDLQYYRVWHKV; Description of Artificial Sequence: Cyclic peptide) [compound 413] | C (0.1 or more and less than 0.5)
415 (YCDWVEVANARQLAYYTLYRKK; Description of Artificial Sequence: Cyclic peptide) [compound 415] | C (0.1 or more and less than 0.5)
416 (LCTQFPASQRYYFALYRLWHKS; Description of Artificial Sequence: Cyclic peptide) [compound 416] | C (0.1 or more and less than 0.5)
417 (LCQIYLYLTALQQGFEDFYPK(COCH2)N; thioether 2-21 via acetyl) [compound 417] | C (0.1 or more and less than 0.5)
418 (DCLRQQVYQYLYILFQNDIAK(COCH2)D; thioether 2-21 via acetyl) [compound 418] | C (0.1 or more and less than 0.5)

Second part, the substance after the results:

Evaluation result of binding affinity to FGFR | Substance
C (0.1 or more and less than 0.5) | 369 (DCLQFLYLYLYQK(COCH2)T; thioether 2-13) [compound 369]
C (0.1 or more and less than 0.5) | 371 (DCQLWYLYQYLIVK(COCH2)A; thioether 2-14) [compound 371]
C (0.1 or more and less than 0.5) | 372 (QCEQLKYLYQYVLK(COCH2)L; thioether 2-14) [compound 372]
C (0.1 or more and less than 0.5) | 374 (QCLQDLYRYLYLLK(COCH2)A; thioether 2-14) [compound 374]
C (0.1 or more and less than 0.5) | 375 (DCLQFIYQYLYTVK(COCH2)I; thioether 2-14) [compound 375]
C (0.1 or more and less than 0.5) | 376 (QCIQDLYLYLYFLK(COCH2)T; thioether 2-14 (inferred)) [compound 376]
C (0.1 or more and less than 0.5) | 377 (HCLHYLYQYLYTVK(COCH2)Y; thioether 2-14 (inferred)) [compound 377]
C (0.1 or more and less than 0.5) | 380 (YCPPQLVYLYQYLYK(COCH2)L; thioether 2-15 (inferred)) [compound 380]
C (0.1 or more and less than 0.5) | 383 (QCQLYYLYQYAYALK(COCH2)V; thioether 2-15 (inferred)) [compound 383]
C (0.1 or more and less than 0.5) | 389 (RCHHNFHHARQHGFFWHYK(COCH2)R; thioether 2-19 (inferred)) [compound 389]
A (0.7 or more) | 395 (YCHENYLDPEQYQYFHYFK(COCH2)H; thioether 2-19 (inferred)) [compound 395]
A (0.7 or more) | 400 (VCQQDNYFYPQQWFFFVHYK(COCH2)H; thioether 2-20 (inferred)) [compound 400]
C (0.1 or more and less than 0.5) | 401 (QCQFLNYVNHVQWHYFWVFK(COCH2)S; thioether 2-20 (inferred)) [compound 401]
B (0.5 or more and less than 0.7) | 407 (LCVQGNYQNPTQWYYFQLYK(COCH2)W; thioether 2-20 (inferred)) [compound 407]
A (0.7 or more) | 409 (LCNNWENYFDWLQWSYYIAYK(COCH2)E; thioether 2-21 (inferred)) [compound 409]
C (0.1 or more and less than 0.5) | 412 (QCEYALQYYRFYVAQRHWVDKL; Description of Artificial Sequence: Cyclic peptide) [compound 412]
C (0.1 or more and less than 0.5) | 414 (YCNYEWDGARRQIAYYRIFLKL; Description of Artificial Sequence: Cyclic peptide) [compound 414]
